Tests used:
[1] = target: T1, M. kandleri AV19 PCNA (MK1030), DNA polymerase sliding clamp
T1 chain: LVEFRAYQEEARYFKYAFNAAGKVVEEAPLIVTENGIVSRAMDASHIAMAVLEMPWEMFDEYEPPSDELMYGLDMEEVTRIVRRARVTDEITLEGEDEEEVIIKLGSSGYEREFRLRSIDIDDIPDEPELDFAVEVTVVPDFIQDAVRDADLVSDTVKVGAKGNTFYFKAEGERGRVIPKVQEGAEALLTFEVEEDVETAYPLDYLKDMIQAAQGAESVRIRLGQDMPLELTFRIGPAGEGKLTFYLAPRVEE

[2] = tested on: fluorescent duplex substrate containing a primer-template junction (PTJ); experiment: Primer extension assay of PolB DNA polymerase activity; assay type: biochemical
Method: A primer extension assay was applied with a fluorescent duplex substrate containing a primer-template junction (PTJ). The duplex shown in FIG. 18 was prepared by annealing a 5′-end labeled with fluorescein 20-nt long primer with a 40-nt long template:
(§1) DNA polymerase reaction mixtures (15-20 μl) contained dATP, dTTP, dCTP, and dGTP (1 mM each), 4.5 mM MgCl2, detergents Tween 20 and Nonidet P-40 (0.2% each), fixed concentrations of PTJ—duplex, other additions, as indicated, and appropriate amounts of polB in 30 mM Tris-HCl buffer pH 8.0 (25° C.). The background reaction mixtures contained all components except DNA polymerases. Primer extensions were carried out for a preset time at 75° C. in PTC-150 Minicycler (MJ Research, Inc.; Waltham, Mass.). 5 μl samples were removed and chilled to 4° C. followed by immediate addition of 20 μl of 20 mM EDTA. The samples were desalted by centrifugation through Sephadex G-50 spun columns, diluted, and analyzed on a ABI Prism 377 DNA sequencer (Applied BioSystems; Foster City, Calif.). For each sample, raw data were extracted from the sequencer trace files with the program Chromas 1.5 (Technelysium Pty Ltd., Australia), and the fluorescent signals were analyzed by our nonlinear regression data analysis programs written in Fortran. The programs applied Powell algorithms to approximate the signals by a number of Gaussian peaks and calculate integral fluorescent intensities for each product peak. The total amount of fluorescent products for each time of incubation was determined, and the initial rates of extension were calculated.
(§2) The next two tables (Table 4 and 5) display effects of various media components on M.K. polB DNA polymerase activity. Initial rates of primer extension reaction were measured as described by Pavlov et al., 2002.
Table 6 illustrates the dependency of initial rates of primer extension for Duplex 2 shown in FIG. 17 on temperature of the reaction. Initial rates of primer extension reaction were measured as described by Pavlov et al., 2002.

[3] = tested on: fluorescent primer *FL-GTAATACGACTCACTATAGGG; experiment: 3'→5' exonuclease activity of polB; assay type: biochemical
Method: A 3′→5′ exonuclease activity of polB polymerase was measured at the same conditions as in the primer extension assay, except omitting dideoxynucleotides. A fluorescent primer:
was incubated with the enzyme at defined times. Then, the amounts of formed products were calculated, and the initial rates of hydrolysis were found, as in case of primer extension. It is interesting that polB was able to cleave off only 9 nucleotides of the primer, that is, the […] primer was the shortest substrate that polB could process.

[4] = tested on: fluorescent duplex substrate containing a primer-template junction (PTJ); experiment: Primer extension assay of PolB DNA polymerase activity; assay type: biochemical; remark: listed apart in the source
[5] = target: T2, M. kandleri AV19 DNA polymerase family B (Mka PolB) (MK1039) (Methanopyrus kandleri AV19); experiment: cell-based or functional assay
T2 chain: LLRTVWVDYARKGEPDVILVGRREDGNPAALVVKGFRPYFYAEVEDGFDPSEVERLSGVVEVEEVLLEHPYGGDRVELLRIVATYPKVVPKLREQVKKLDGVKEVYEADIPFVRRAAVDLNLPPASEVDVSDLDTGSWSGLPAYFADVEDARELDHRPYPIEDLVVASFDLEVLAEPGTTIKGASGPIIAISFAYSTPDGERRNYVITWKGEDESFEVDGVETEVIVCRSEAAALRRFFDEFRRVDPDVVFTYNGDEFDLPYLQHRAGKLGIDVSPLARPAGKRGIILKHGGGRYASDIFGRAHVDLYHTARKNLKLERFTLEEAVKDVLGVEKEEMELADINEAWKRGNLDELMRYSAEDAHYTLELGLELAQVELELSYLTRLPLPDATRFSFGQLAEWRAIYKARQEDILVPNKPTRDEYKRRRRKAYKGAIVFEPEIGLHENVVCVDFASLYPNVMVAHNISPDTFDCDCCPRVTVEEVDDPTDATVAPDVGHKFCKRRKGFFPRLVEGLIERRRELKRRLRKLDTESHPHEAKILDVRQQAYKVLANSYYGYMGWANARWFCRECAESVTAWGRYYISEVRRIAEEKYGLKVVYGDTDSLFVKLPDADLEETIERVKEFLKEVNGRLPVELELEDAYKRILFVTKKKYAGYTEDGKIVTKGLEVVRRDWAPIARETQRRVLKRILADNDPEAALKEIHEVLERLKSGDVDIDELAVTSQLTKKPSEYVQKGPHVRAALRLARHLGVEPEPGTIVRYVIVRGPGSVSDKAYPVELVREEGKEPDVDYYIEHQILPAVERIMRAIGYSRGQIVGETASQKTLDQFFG

M.K. polB DNA polymerase = M.K. polB DNA polymerase (Methanopyrus kandleri, UniProt Q8TWJ5); experiment: Effects of media components on M.K. polB DNA polymerase activity (primer extension); assay type: biochemical
M.K. polB DNA polymerase, sequence (Q8TWJ5 entry or part of it): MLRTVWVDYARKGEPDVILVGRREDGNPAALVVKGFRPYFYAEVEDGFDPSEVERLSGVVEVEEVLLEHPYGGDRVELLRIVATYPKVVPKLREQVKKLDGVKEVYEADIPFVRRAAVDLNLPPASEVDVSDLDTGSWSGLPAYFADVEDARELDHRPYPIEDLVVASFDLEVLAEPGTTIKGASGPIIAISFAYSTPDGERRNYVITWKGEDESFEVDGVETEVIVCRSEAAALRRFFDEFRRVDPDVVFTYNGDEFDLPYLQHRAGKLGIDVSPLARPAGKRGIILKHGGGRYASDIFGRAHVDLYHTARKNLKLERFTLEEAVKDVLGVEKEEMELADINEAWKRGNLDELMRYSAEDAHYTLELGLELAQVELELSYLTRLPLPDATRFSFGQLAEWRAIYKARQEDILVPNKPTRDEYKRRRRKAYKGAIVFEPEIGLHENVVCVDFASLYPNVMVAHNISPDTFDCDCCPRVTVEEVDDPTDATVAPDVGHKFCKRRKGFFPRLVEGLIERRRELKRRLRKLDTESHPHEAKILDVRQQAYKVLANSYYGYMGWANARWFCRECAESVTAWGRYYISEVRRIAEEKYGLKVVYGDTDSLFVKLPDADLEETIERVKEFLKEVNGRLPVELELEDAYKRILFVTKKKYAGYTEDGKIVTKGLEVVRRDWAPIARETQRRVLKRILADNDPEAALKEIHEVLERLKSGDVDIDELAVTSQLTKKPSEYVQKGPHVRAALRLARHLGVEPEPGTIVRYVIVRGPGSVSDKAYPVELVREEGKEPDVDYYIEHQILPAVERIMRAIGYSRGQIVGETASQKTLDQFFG
Method: as §1, §2

PolB = experiment: Interaction of polB with PCNA (primer extension assay); assay type: biochemical, Methanopyrus kandleri; details: PCNA 5.6 μM subunits, 100 mM NaCl
Method: PolB was incubated with PCNA (final concentration 5.6 μM subunits) in the presence of 100 mM NaCl. The polymerase activity was measured in the primer extension assay and compared to the activity without PCNA added. Even without clamp loader, the interaction of PCNA with PolB was detected as the initial rate of the primer extension increased 1.75 times. […] This happens, most likely because PCNA anchors polB on the PTJ and/or prevents partial melting of the PTJ duplex.

B1: M. kandleri AV19 DNA polymerase family B (Mka PolB) (MK1039) (protein)
chain: LLRTVWVDYARKGEPDVILVGRREDGNPAALVVKGFRPYFYAEVEDGFDPSEVERLSGVVEVEEVLLEHPYGGDRVELLRIVATYPKVVPKLREQVKKLDGVKEVYEADIPFVRRAAVDLNLPPASEVDVSDLDTGSWSGLPAYFADVEDARELDHRPYPIEDLVVASFDLEVLAEPGTTIKGASGPIIAISFAYSTPDGERRNYVITWKGEDESFEVDGVETEVIVCRSEAAALRRFFDEFRRVDPDVVFTYNGDEFDLPYLQHRAGKLGIDVSPLARPAGKRGIILKHGGGRYASDIFGRAHVDLYHTARKNLKLERFTLEEAVKDVLGVEKEEMELADINEAWKRGNLDELMRYSAEDAHYTLELGLELAQVELELSYLTRLPLPDATRFSFGQLAEWRAIYKARQEDILVPNKPTRDEYKRRRRKAYKGAIVFEPEIGLHENVVCVDFASLYPNVMVAHNISPDTFDCDCCPRVTVEEVDDPTDATVAPDVGHKFCKRRKGFFPRLVEGLIERRRELKRRLRKLDTESHPHEAKILDVRQQAYKVLANSYYGYMGWANARWFCRECAESVTAWGRYYISEVRRIAEEKYGLKVVYGDTDSLFVKLPDADLEETIERVKEFLKEVNGRLPVELELEDAYKRILFVTKKKYAGYTEDGKIVTKGLEVVRRDWAPIARETQRRVLKRILADNDPEAALKEIHEVLERLKSGDVDIDELAVTSQLTKKPSEYVQKGPHVRAALRLARHLGVEPEPGTIVRYVIVRGPGSVSDKAYPVELVREEGKEPDVDYYIEHQILPAVERIMRAIGYSRGQIVGETASQKTLDQFFG
hydrolysis of the primer annealed to the duplex (3'-5' exonuclease activity of polB) [1]: suppression of hydrolysis of the primer annealed to the duplex
use of dUTP for primer extensions [2]: can use dUTP for primer extensions
Initial Rate of Primer Extension ([2]; 0.5 M NaCl): 0.123 ± 0.003 µM/min
Initial Rate of Primer Extension ([2]; 0.5 M NaCl + PCNA): 0.214 ± 0.014 µM/min
Initial Rate of Primer Extension ([2]; 1 M DPG): 2.17 ± 0.16 µM/min
Initial Rate of Primer Extension ([2]; 1 M KGlu): 2.74 ± 0.18 µM/min
Initial Rate of Primer Extension ([2]; 1 M KGlu, dUTP): 1.82 ± 0.09 µM/min
temperature up to which primers are extended ([2]; Duplex 2 (FIG. 17)): up to 105 °C
Initial Rate of Primer Extension ([2]; Duplex 2 (FIG. 17), 50 °C): 1.01 ± 0.06 µM/min
Initial Rate of Primer Extension ([2]; Duplex 2 (FIG. 17), 55 °C): 1.08 ± 0.09 µM/min
Initial Rate of Primer Extension ([2]; Duplex 2 (FIG. 17), 60 °C): 1.12 ± 0.08 µM/min
Initial Rate of Primer Extension ([2]; Duplex 2 (FIG. 17), 65 °C): 1.23 ± 0.05 µM/min
Initial Rate of Primer Extension ([2]; Duplex 2 (FIG. 17), 70 °C): 1.01 ± 0.07 µM/min
Initial Rate of Primer Extension ([2]; Duplex 2 (FIG. 17), 75 °C): 0.95 ± 0.07 µM/min
Initial Rate of Primer Extension ([2]; Duplex 2 (FIG. 17), 80 °C): 0.92 ± 0.07 µM/min
Initial Rate of Primer Extension ([2]; Duplex 2 (FIG. 17), 85 °C): 0.94 ± 0.07 µM/min
Initial Rate of Primer Extension ([2]; Duplex 2 (FIG. 17), 90 °C): 0.71 ± 0.05 µM/min
Initial Rate of Primer Extension ([2]; Duplex 2 (FIG. 17), 95 °C): 0.62 ± 0.04 µM/min
Initial Rate of Primer Extension ([2]; Duplex 2 (FIG. 17), 100 °C): 0.62 ± 0.06 µM/min
Initial Rate of Primer Extension ([2]; Duplex 2 (FIG. 17), 105 °C): 0.55 ± 0.09 µM/min
nucleotides of the primer cleaved off [3]: 9 nucleotides
shortest substrate that polB could process [3]: 13 nt
resistance to aggressive chemicals [4]: resistant to aggressive chemicals

B2: M. kandleri AV19 PCNA (MK1030), DNA polymerase sliding clamp (other)
chain: LVEFRAYQEEARYFKYAFNAAGKVVEEAPLIVTENGIVSRAMDASHIAMAVLEMPWEMFDEYEPPSDELMYGLDMEEVTRIVRRARVTDEITLEGEDEEEVIIKLGSSGYEREFRLRSIDIDDIPDEPELDFAVEVTVVPDFIQDAVRDADLVSDTVKVGAKGNTFYFKAEGERGRVIPKVQEGAEALLTFEVEEDVETAYPLDYLKDMIQAAQGAESVRIRLGQDMPLELTFRIGPAGEGKLTFYLAPRVEE
initial rate of the primer extension [5]: 1.75 fold
effect on polymerase activity of PolB (M.K. polB DNA polymerase): increase
effect on hydrolysis of the primer annealed to the duplex (PolB): suppression of hydrolysis of the primer

From patent US20060068386A1, “Complete genome and protein sequence of the hyperthermophile methanopyrus kandleri av19 and monophyly of archael methanogens and methods of use thereof” (priority 2002, published 2006)
